Test results reported in PMC2788773 (Molecular cell, 2009).
Where a chain is given by its changes, count along the chain named.

Key:
Assay in all cases: pull-down
His6-S-Rad54-T132A = target: T1, His6-S-Rad54-T132A (S. cerevisiae (budding yeast), UniProt P32863 1-898, T132A)
T1 sequence (looked up): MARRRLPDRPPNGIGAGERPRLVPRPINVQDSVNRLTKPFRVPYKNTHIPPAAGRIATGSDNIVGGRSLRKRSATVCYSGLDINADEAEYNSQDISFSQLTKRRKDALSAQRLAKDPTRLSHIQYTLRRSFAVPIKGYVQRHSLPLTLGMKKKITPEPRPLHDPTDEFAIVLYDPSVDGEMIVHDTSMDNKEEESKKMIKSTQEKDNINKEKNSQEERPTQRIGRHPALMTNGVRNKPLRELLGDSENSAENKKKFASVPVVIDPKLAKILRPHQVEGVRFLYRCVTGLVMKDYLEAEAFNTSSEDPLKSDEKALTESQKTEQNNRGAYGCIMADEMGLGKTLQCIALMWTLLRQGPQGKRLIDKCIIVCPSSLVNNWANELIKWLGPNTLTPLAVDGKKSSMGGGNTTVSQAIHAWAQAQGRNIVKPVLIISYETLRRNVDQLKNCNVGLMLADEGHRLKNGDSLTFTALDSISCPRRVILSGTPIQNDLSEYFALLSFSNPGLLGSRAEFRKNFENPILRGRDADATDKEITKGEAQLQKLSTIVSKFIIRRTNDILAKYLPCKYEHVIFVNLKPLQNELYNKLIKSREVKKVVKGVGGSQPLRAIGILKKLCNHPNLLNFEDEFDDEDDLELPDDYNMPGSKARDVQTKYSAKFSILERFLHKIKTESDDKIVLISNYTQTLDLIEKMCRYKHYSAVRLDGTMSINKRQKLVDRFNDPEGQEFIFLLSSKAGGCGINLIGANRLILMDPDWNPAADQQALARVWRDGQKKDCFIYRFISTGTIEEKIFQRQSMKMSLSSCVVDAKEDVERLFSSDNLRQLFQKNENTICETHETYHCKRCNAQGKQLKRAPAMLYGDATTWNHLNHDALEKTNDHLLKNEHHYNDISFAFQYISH

His6-S-Rad54-T132D = target: T2, His6-S-Rad54-T132D (S. cerevisiae (budding yeast), UniProt P32863 1-898, T132D)
T2 sequence (looked up): T1 sequence (looked up) with A132D

His6-S-Rad54 = target: T3, His6-S-Rad54 (S. cerevisiae (budding yeast), UniProt P32863 1-898)
T3 sequence (looked up): T1 sequence (looked up) with A132T

B1: Rad51 (natural protein, S. cerevisiae (budding yeast), UniProt P25454 1-400, looked up)
chain: MSQVQEQHISESQLQYGNGSLMSTVPADLSQSVVDGNGNGSSEDIEATNGSGDGGGLQEQAEAQGEMEDEAYDEAALGSFVPIEKLQVNGITMADVKKLRESGLHTAEAVAYAPRKDLLEIKGISEAKADKLLNEAARLVPMGFVTAADFHMRRSELICLTTGSKNLDTLLGGGVETGSITELFGEFRTGKSQLCHTLAVTCQIPLDIGGGEGKCLYIDTEGTFRPVRLVSIAQRFGLDPDDALNNVAYARAYNADHQLRLLDAAAQMMSESRFSLIVVDSVMALYRTDFSGRGELSARQMHLAKFMRALQRLADQFGVAVVVTNQVVAQVDGGMAFNPDPKKPIGGNIMAHSSTTRLGFKKGKGCQRLCKVVDSPCLPEAECVFAIYEDGVGDPREEDE
With B1 the binding result (His6-S-Rad54-T132A) was “binds”, the “fold reduction in Rad51 binding compared to Rad54” value (His6-S-Rad54-T132D) was 2 fold and the binding result (His6-S-Rad54) was “binds”.
